{
  "source": "the nanobody polyreactivity screen of Harvey et al. (2022)",
  "data": [
    {"assay": "yeast display, Sf9 membrane polyspecificity reagent, FACS + sequencing; frameworks hold sequencing errors", "in_short": "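A synthetic nanobody library was expressed on Saccharomyces cerevisiae BJ5465 by galactose induction for 36–48 hours. The library was stained for 1 hour at 4 °C with 10% biotinylated, detergent-solubilized Sf9 membrane reagent and enriched with streptavidin microbeads before FACS. Low and high (top ~1%) gates were set on anti-HA fluorescence for expression and streptavidin fluorescence for reagent binding, and each polyreactivity label reflects the gate of origin.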", "values": [
      {"sequence": "QDQLVESGGGLVQAGGSLRLSCDASGSIFKSYAMGWFRQAPGKERELVASITYGGGRTYYADSVKGRFTISRDNAKNTVYLQMNSLKPEDTAVYYCATRLFGRSGMYYLRYDYWGQGTQVTVSS", "polyreactivity (PSR sort gate)": "high polyreactivity"},
      {"sequence": "QVQLVESGGGLVQAGGSLRLSCAASGFTFVYYAMGWYRQAPGKERELVAAISRSGGSTYYADSVKGRFTISRDNAKNTVNLQMNSLKPEDTAVYYCAARKTYGSRLSYEYWGQGTQVTVSS", "polyreactivity (PSR sort gate)": "high polyreactivity"},
      {"sequence": "QVQLVESGGGLVQAGGSLRLSCAASGSILRPNAMGWYRQAPGKERELVAAITTTGGSTYYADSVKGRFTISRDNAKNTVYLLMNRLKPEDTAVYYCAAEYVYLYYLYLYYYWGQGTQVTVSS", "polyreactivity (PSR sort gate)": "high polyreactivity"},
      {"sequence": "QVQLVESGGGLVQAGGSLRLSCAASGSTFGPYAMGWYRQAPGKERELVAAISRGGSTYYADSVKGRFTISRDNAKNTVYLQMNSLKPEDTAVYYCAARYVRVGYDYWGQGTQVTVSS", "polyreactivity (PSR sort gate)": "high polyreactivity"},
      {"sequence": "QVQLVESGGGLVQAGGSLRLSCAASGRTFLYYAMGWSRQAPGKEMELVAAIRRGSSTYYADSVKGRFTISRDNAKITVYLQRNCPKPEDTAVYYCAARSFAITKYGSYDYWGQGTQVTVSS", "polyreactivity (PSR sort gate)": "high polyreactivity"},
      {"sequence": "QVQLVESGGGLVQAGGSLRVTCAASGRIFQRYVMGWYRQAPGKERELVAAITWSGGSTYADSVKGRFTISRDNAKNTVYLQMNSLKTEDTAVYYFAARVPYNYWGMYYLYDYWGQGTQVTVSS", "polyreactivity (PSR sort gate)": "high polyreactivity"},
      {"sequence": "QVQLVESGGGLVQAGGSLRLSCAASGRIFRGYVMGWYIQAPGKERELVAAISINGGRTYYADSVKGRFTISRDNAKNTVYLQMNSLKPEDTAVYYCAAEPIYFRGLYYYWGLGTQVTVSS", "polyreactivity (PSR sort gate)": "high polyreactivity"},
      {"sequence": "QVQLVESGGGLLQAGGSLRLSCAASGFIFKYYAMGWYRQAPGKEREFVAGINWSGTSTYYADSVKGRFTISRDNAKNTVYLQMNSLKPEDTAVYYCAATAYRGRTSRYYYWGQGTQVTVSS", "polyreactivity (PSR sort gate)": "high polyreactivity"},
      {"sequence": "QVQLVESGGGLVQAGGSLRLSCAASGSTFYYVNAMGWYRQAPGKEREFVAAISSSSGSTYYADSVKGRFTISRDNAKNTVYLQMNSLKPEDTAVYYCAKVPRYYKSYYWGQGTQVTVSS", "polyreactivity (PSR sort gate)": "high polyreactivity"},
      {"sequence": "QVQLVESGGGLVQAGGSLRLSCAASGFTFYYNAMGWYRQAPGKERELVASITRSGGRTYYADSVKGRFTISRDNAMNTVYLKMNSLKPEDTAVYYCARRYPRGYYWGQGTQVTVSS", "polyreactivity (PSR sort gate)": "high polyreactivity"},
      {"sequence": "QVQLVESGGGLVQAGGSLRLSCAASGFTFNRNAMGWYRQAPGKERELVAAISWSGGSTYYADSVKGRFTLSRDNAKNTVYLQMNSLKPEETAVYYCAKGYRRVYGPFYYWGQGTQVTVSS", "polyreactivity (PSR sort gate)": "low polyreactivity"},
      {"sequence": "QVQLVESGGGLVQAGGSLRLSCAASGSIFDVYAMGWYRQAPGKERELVAAITFSGGSTYYADSVKWRFTISRDNAKNTVYLQMNSLNPEDTAVYYCSVSRSYLYPVYGYYTWLGDYWGQGTQVTVSS", "polyreactivity (PSR sort gate)": "low polyreactivity"},
      {"sequence": "QVQLVESGGGLVQARGSLRLICAASGRTFSYNTMGWYRQAPGKERDLVASITRSGGSTYYSDSVKGRFTISRDNAKNTVYLQMNSLKPEDTAVYYCAADSYPGSTYYDSLDYWGQGTQVTVSS", "polyreactivity (PSR sort gate)": "low polyreactivity"},
      {"sequence": "QVQLVESGGGLVQAGGSLRLSCAASGSTFGTNAMGWYRQAPGKERELVAAITRGGNTYYADSVKGRFTISRDNAKNTVYLQMNSLKTEDTAVYYCNTYTRASRFDYWGQGTQVTVSS", "polyreactivity (PSR sort gate)": "high polyreactivity"},
      {"sequence": "QVQLVESVGGLVQAGGSLRLSCAASGSIFWWYAMGLARQAPGKERELVAAISTRDGNTYYADSVKGRFTISRDNANNTVYLQMNSLKPEDTAVYYCAADYFRYYPYDYWGQGTQVTVSS", "polyreactivity (PSR sort gate)": "low polyreactivity"},
      {"sequence": "QDQLVESGGGLVQAGGSLRLSCAASGFTFYGYAMGWYRQAQGKERELVAAISSSGGRTYYADSVKGRFTISRDNAKNTVYLQMNSLKPEDTAVYYCAARARYIRGGGSRAYIGYYWGQGTQVTVSS", "polyreactivity (PSR sort gate)": "high polyreactivity"},
      {"sequence": "QVQLVESGGGLVQAGGSLLLICAASGLTFYAKVMGWYRQAPGKERELVASISRSGGRTYYADSVKGSFTISRDNAKNTVYLQMNSLKPEDTAVYYSAAADQVGQEDDYWGQGSQVTVSS", "polyreactivity (PSR sort gate)": "low polyreactivity"},
      {"sequence": "QVQLVEAGGGLVQAGGSLRLSCAASGRTFSFNAMGCYRQAPGKERELVAAISRRGTSTYYADSVKGRFTISRDNAKNSVYLQMNSLKPEYTAVYYCAARSTYTRREYDYWGQGTQVTVSS", "polyreactivity (PSR sort gate)": "high polyreactivity"},
      {"sequence": "QVQLVESGGGLVQAGGSLRLSCAASGIIFTRYVMGWYRQAPRKERELVAAISWSGGRTYYADSVKGRFTISRDNAKNTVYLQMNSLKPEDTAVYYCAAGIYQHAGGDYWGQGTQVTVSS", "polyreactivity (PSR sort gate)": "high polyreactivity"},
      {"sequence": "QGQLVESWGGLVQAGGSLRLSCAASGSTLRRYAMGWYRQAPGKERELVAAISRRGGSTYYADSVKGRFSISRDFAKNTVYLEMNSLKPEDTAVYYCAAKGFSTRQFDYWGQGTQVTVSS", "polyreactivity (PSR sort gate)": "high polyreactivity"},
      {"sequence": "QVQLVESGGGLVQAGGSLRLSCAASGFTFRNYAMGWYIQAPGKERELVATISWSGTSTYYADSVKGRFTISRDNAKNTVYLQMNSLKPEDTAVYYCAARGRHSGYYSFPYYYWGQGTQVTVSS", "polyreactivity (PSR sort gate)": "low polyreactivity"}
    ]}
  ]
}
